The values that follow come from patent US20160237160A1, “ANTI-TWEAKR ANTIBODIES AND USES THEREOF” (BAYER PHARMA AKTIENGESELLSCHAFT, priority 2013, published 2016).

The target of assay [1] is T1, TWEAKR-Fc mutein R56P (TPP-2683) (Homo sapiens, UniProt Q9NP84, R56P).
T1 construct: the full ectodomain (amino acids 28-80) with the following single amino acid substitutions; made in house
Put plainly: ELISA mutein binding. The following applies: coating 62 ng/ml; biotinylated IgG from 100 nM; read-out: IC50 of antibody binding, R56P. The procedure:
(§1) Therefore, the full ectodomain (amino acids 28-80) with the following single amino acid substitutions were expressed and purified as Fc fusion proteins: T33Q; S40R; W42A; M50A; R56P; H60K; L65Q.
(§2) To collect dose-response data, the different TWEAKR-Fc muteins were coated with a low concentration (62 ng/ml) in a 384-well Maxisorb ELISA plate and a serial 2fold dilution of biotinylated IgG starting with a concentration of 100 nM was used as soluble binding partner. Detection was done with Streptavidin-HRP and Amplex Red.
(§3) IgGs were biotinylated using an approximately 2-fold molar excess of biotin-LC-NHS (Pierce; Cat. No. 21347) according to manufacturer's instructions and desalted using Zeba desalting columns (Pierce; Cat. No. 89889). The dose-response data were fitted and IC50s determined.

For assay [2], the target named is T2, TWEAKR-Fc mutein H60K (TPP-1989) (Homo sapiens, UniProt Q9NP84, H60K).
T2 construct: the full ectodomain (amino acids 28-80) with the following single amino acid substitutions; made in house
The experiment in a line: ELISA mutein binding. Particulars: coating 62 ng/ml; biotinylated IgG from 100 nM; read-out: IC50 of antibody binding, H60K. The protocol:
as §1, §2, §3
(In an ELISA, binding on a coated surface is turned into a signal by an enzyme label.)

Assay [3] has as its target T3, TWEAKR-Fc mutein T33Q (TPP-1986) (Homo sapiens, UniProt Q9NP84, T33Q).
T3 construct: the full ectodomain (amino acids 28-80) with the following single amino acid substitutions; made in house
The experiment in a line: ELISA mutein binding. Particulars: coating 62 ng/ml; biotinylated IgG from 100 nM; read-out: IC50 of antibody binding, T33Q. The protocol: as §1, §2, §3

Assay [4] concerns the target T4, TWEAKR-Fc mutein M50A (TPP-1988) (Homo sapiens, UniProt Q9NP84, M50A).
T4 construct: the full ectodomain (amino acids 28-80) with the following single amino acid substitutions; made in house
Put plainly: ELISA mutein binding. Particulars: coating 62 ng/ml; biotinylated IgG from 100 nM; read-out: IC50 of antibody binding, M50A. The procedure: as §1, §2, §3

For a further assay, the target named is T5, TWEAKR-Fc WT (TPP-599) (Homo sapiens, UniProt Q9NP84).
T5 construct: TPP-599; HUMAN-TNFRSF12Aaa28-80-hIgG1-Fc; 138; made in house
The experiment in a line: ELISA mutein binding. Particulars: coating 62 ng/ml; biotinylated IgG from 100 nM; read-out: IC50 of antibody binding, WT. The procedure:
as §1, §2, §3

The target of assay [5] is T6, TWEAKR-Fc mutein W42A (TPP-1985) (Homo sapiens, UniProt Q9NP84, W42A).
T6 construct: the full ectodomain (amino acids 28-80) with the following single amino acid substitutions; made in house
The experiment in a line: ELISA mutein binding. Particulars: coating 62 ng/ml; biotinylated IgG from 100 nM; read-out: IC50 of antibody binding, W42A. The procedure: as §1, §2, §3

For assay [6], the target named is T7, TWEAKR-Fc mutein S40R (TPP-1987) (Homo sapiens, UniProt Q9NP84, S40R).
T7 construct: the full ectodomain (amino acids 28-80) with the following single amino acid substitutions; made in house
The experiment in a line: ELISA mutein binding. Particulars: coating 62 ng/ml; biotinylated IgG from 100 nM; read-out: IC50 of antibody binding, S40R. The protocol:
as §1, §2, §3

Assay [7] deals with T8, TWEAKR-Fc mutein L65Q (TPP-1990) (Homo sapiens, UniProt Q9NP84, L65Q).
T8 construct: the full ectodomain (amino acids 28-80) with the following single amino acid substitutions; made in house
Put plainly: ELISA mutein binding. The following applies: coating 62 ng/ml; biotinylated IgG from 100 nM; read-out: IC50 of antibody binding, L65Q. The protocol:
as §1, §2, §3

For the next assay, the target named is TWEAKR (Homo sapiens, UniProt Q9NP84). Particulars: published data; read-out: KD / binding affinity to TWEAKR (published); cited from earlier work.
Assay [8] has as its target T9, TWEAKR protein (TPP-2305) (Homo sapiens, UniProt Q9NP84).
T9 construct: TPP-2305; hTNFRSF12Aaa28-80; Human; 30R-AT080; 168; purchased Fitzgerald Inc 30R-AT080
Put plainly: Biacore monovalent KD with TWEAKR protein. Format: binding. Particulars: for ka / kd: first order 1:1 binding model. The procedure:
Binding affinities of anti-TWEAKR antibodies were determined by surface plasmon resonance analysis on a Biacore T100 instrument (GE Healthcare Biacore, Inc.). Antibodies were immobilized onto a CM5 sensor chip through an indirect capturing reagent, anti-human IgG(Fc). Reagents from the “Human Antibody Capture Kit” (BR-1008-39, GE Healthcare Biacore, Inc.) were used as described by the manufacturer. Anti-TWEAKR antibodies were injected at a concentration of 10 μg/ml at 10 μl/min for 10 sec.
Sensorgrams were generated after in-line reference cell correction followed by buffer sample subtraction. The dissociation equilibrium constant (KD) was calculated based on the ratio of association (kon) and dissociation rated (koff) constants, obtained by fitting sensorgrams with a first order 1:1 binding model.

Substitutions are numbered along the chain they refer to.

B1: 18.3.3(TPP-2193): reference anti-TWEAKR antibody, murine IgG2a, from WO2009/020933; SEQ ID NO 129/130 (protein)
light: DIVLTQSPASLAVSLGQRATISCKASQSVSTSTYSYMQWYQQRPGQSPKLLIKYASKLDSGVPARFSGSGSGTDFTLNIHPVEEEDTATYYCQHSWELPYTFGGGTRLEIKRADAAPTVSIFPPSSEQLTSGGASVVCFLNNFYPKDINVKWKIDGSERQNGVLNSWTDQDSKDSTYSMSSTLTLTKDEYERHNSYTCEATHKTSTSPIVKSFNRNEC
heavy: EVKLGESGGGLVQPGGSMKLSCVASGFPFTKYWMNWVRQSPEKGLEWVAEIRLKSDNYATHYAESAKGRFTISRDDSRSSVYLQMNNLRAEDTAIYYCSPTYADTMDYWGQGTSVTVSSAKTTAPSVYPLAPVCGDTTGSSVTLGCLVKGYFPEPVTLTWNSGSLSSGVHTFPAVLQSDLYTLSSSVTVTSSTWPSQSITCNVAHPASSTKVDKKIEPRGPTIKPCPPCKCPAPNLLGGPSVFIFPPKIKDVLMISLSPIVTCVVVDVSEDDPDVQISWFVNNVEVHTAQTQTHREDYNSTLRVVSALPIQHQDWMSGKEFKCKVNNKDLPAPIERTISKPKGSVRAPQVYVLPPPEEEMTKKQVTLTCMVTDFMPEDIYVEWTNNGKTELNYKNTEPVLDSDGSYFMYSKLRVEKKNWVERNSYSCSVVHEGLHNHHTTKSFSRTPG
modifications: Mus Musculus
Take B1: the IC50 was greater than 50 nM in assay [1]; 0.001 to 0.15 nM in assay [2]; 0.001 to 0.15 nM in assay [3]; 0.001 to 0.15 nM in assay [4]; 0.001 to 0.15 nM in the assay with TWEAKR-Fc WT (TPP-599); greater than 50 nM in assay [5]. Besides, the IC50 in assay [6] and in assay [7] was 0.001 to 0.15 nM in each case. Besides, the Kd in the assay with TWEAKR is 0.2 nM. This molecule also displayed a ka in assay [8] of 1.64e+07 M⁻¹ s⁻¹. Besides, the kd in [8] worked out at 0.0285 s⁻¹.

B2: 136.1(TPP-2194): reference anti-TWEAKR antibody, murine IgG2a, from WO2009/020933; SEQ ID NO 123/124 (protein)
light: B1 light with A12T, K24R, T33S, S47P, S56T, K57N, T87A, L98I, R107K
heavy: EVKLEESGGGLVQPGGSMKLSCVASGFTFNNYWMSWVRQSPEKGLEWLAEIRLKSDNYATHYAESVKGKFTISRDDSKSRLYLQMNNLRAENTGIYYCTGGFADYFDYWGQGTTLTVSSAKTTAPSVYPLAPVCGDTTGSSVTLGCLVKGYFPEPVTLTWNSGSLSSGVHTFPAVLQSDLYTLSSSVTVTSSTWPSQSITCNVAHPASSTKVDKKIEPRGPTIKPCPPCKCPAPNLLGGPSVFIFPPKIKDVLMISLSPIVTCVVVDVSEDDPDVQISWFVNNVEVHTAQTQTHREDYNSTLRVVSALPIQHQDWMSGKEFKCKVNNKDLPAPIERTISKPKGSVRAPQVYVLPPPEEEMTKKQVTLTCMVTDFMPEDIYVEWTNNGKTELNYKNTEPVLDSDGSYFMYSKLRVEKKNWVERNSYSCSVVHEGLHNHHTTKSFSRTPG
modifications: Mus Musculus
Take B2: the IC50 was greater than 50 nM in assay [1]; 0.001 to 0.15 nM in assay [2]; 0.001 to 0.15 nM in assay [3]; 0.001 to 0.15 nM in [4]; 0.001 to 0.15 nM with TWEAKR-Fc WT (TPP-599); greater than 50 nM in assay [5]. For the same molecule, the IC50 in assay [6] and in assay [7] was 0.001 to 0.15 nM each time. Further, the Kd with TWEAKR is 0.7 nM. In [8], this molecule registered a ka of 3.84e+07 M⁻¹ s⁻¹. This molecule also displayed a kd in assay [8] of 0.0324 s⁻¹.

B3: P2D3(TPP-2196): reference anti-TWEAKR antibody, murine IgG2a, from WO2009/140177; SEQ ID NO 131/132 (protein)
light: DIVLTQSPASLAVSLGQRATISCRASKSVSTSSYSYMHWYQQKPGQPPKLLIKYTSNLESGVPARFSGSGSGTDFILNIHPVEEEDAATYYCQHSRELPWTFGGGTKLEIKRADAAPTVSIFPPSSEQLTSGGASVVCFLNNFYPKDINVKWKIDGSERQNGVLNSWTDQDSKDSTYSMSSTLTLTKDEYERHNSYTCEATHKTSTSPIVKSFNRNEC
heavy: QVSLKESGPGILQPSQTLSLTCSFSGFSLSTSGMGVSWIRQPSGKGLEWLAHIYWDDDKRYNPSLKSRLTISKDTSRNQVFLKITSVDTADTATYYCARRGPDYYGYYPMDYWGQGTSVTVSAKTTAPSVYPLAPVCGDTTGSSVTLGCLVKGYFPEPVTLTWNSGSLSSGVHTFPAVLQSDLYTLSSSVTVTSSTWPSQSITCNVAHPASSTKVDKKIEPRGPTIKPCPPCKCPAPNLLGGPSVFIFPPKIKDVLMISLSPIVTCVVVDVSEDDPDVQISWFVNNVEVHTAQTQTHREDYNSTLRVVSALPIQHQDWMSGKEFKCKVNNKDLPAPIERTISKPKGSVRAPQVYVLPPPEEEMTKKQVTLTCMVTDFMPEDIYVEWTNNGKTELNYKNTEPVLDSDGSYFMYSKLRVEKKNWVERNSYSCSVVHEGLHNHHTTKSFSRTPG
modifications: Mus Musculus
With B3, in [8], the ka was found to be 1.32e+06 M⁻¹ s⁻¹ and the kd was 0.000564 s⁻¹. The molecule further displayed a Kd in assay [8] (monovalent KD) of 0.4 nM.

What is called IC50 is the midpoint of a concentration-inhibition curve.
